In US7589065B2, “Catalysis of the cis/trans-isomerisation of secondary amide peptide compounds” (Max-Planck Gesellschaft zur Forderung der Wissenschaften, …, priority 2001, dated 2009):

Assay: 2D 1H NMR exchange (NOESY) measurement of cis/trans isomerisation in the pentapeptide
Assay type: biochemical
Conditions: 20 μM addition; for relative intensity of the cross signal of the peptide bond Ala-Tyr / relative intensity of the cross signal of the peptide bond Tyr-Ala: 25 mM pentapeptide, pH 7.1, 278° K; for relative intensity of the cross signal of the peptide bond Ala-Tyr: no addition 3.50 ± 0.51; for relative intensity of the cross signal of the peptide bond Tyr-Ala: no addition 3.89 ± 0.32
From the text: A further possibility, only described in 1998, is the determination of the cis/trans isomerisation rate of secondary amide peptide bonds containing aromatic amino acids by means of 2D 1H NMR exchange experiments (Scherer G. et al., 1998, JACS 120:5568-5574). In Example 8, this NMR method is used to determine a catalytic acceleration of the cis/trans isomerisation of the peptide bonds Ala-Tyr and Tyr-Ala within the pentapeptide Ala-Ala-Tyr-Ala-Ala. The acceleration is accomplished by catalytic amounts of DnaK.
NMR Device: Bruker DRX-500, Equipped with z-gradient
• FIG. 8: The alanine methyl region from the two-dimensional exchange 1H-NMR spectrum of 25 mM Ala-Ala-Tyr-Ala-Ala in 25 mM Tris, 11 mM MgCl2, 50 mM KCl, 9:1H2O:D2O, pH 7.1 at 278° K. The mixing time of the phase-sensitive NOESY was 330 ms. Each FID had 184 scans. The amount of data from t1×t2=512×8192 points covered a spectral range of 5501 Hz×5482 Hz. The correction of the base line was carried out by adjustment with a polynom of fifth order in the F2 dimension. […] The experiment was carried out under identical conditions as described above. In addition, 20 μM DnaK was contained in the measuring solution.
In a further analysis of the method of the two-dimensional NOESY experiment illustrated in Example 8, the cross signals can be quantified by means of common mathematical techniques.

Molecule	catalysis of the cis/trans isomerisation of the Ala-Tyr and Tyr-Ala peptide bonds (in words)	relative intensity of the cross signal of the peptide bond Ala-Tyr	relative intensity of the cross signal of the peptide bond Tyr-Ala
trigger factor (TF): peptidyl-prolyl cis/trans isomerase (Stoller G. et al., 1995) (protein) MQVSVETTQGLGRRVTITIAADSIETAVKSELVNVAKKVRIDGFRKGKVPMNIVAQRYGASVRQDVLGDLMSRNFIDAIIKEKINPAGAPTYVPGEYKLGEDFTYSVEFEVYPEVELQGLEAIEVEKPIVEVTDADVDGMLDTLRKQQATWKEKDGAVEAEDRVTIDFTGSVDGEEFEGGKASDFVLAMGQGRMIPGFEDGIKGHKAGEEFTIDVTFPEEYHAENLKGKAAKFAINLKKVEERELPELTAEFIKRFGVEDGSVEGLRAEVRKNMERELKSAIRNRVKSQAIEGLVKANDIDVPAALIDSEIDVLRRQAAQRFGGNEKQALELPRELFEEQAKRRVVVGLLLGEVIRTNELKADEERVKGLIEEMASAYEDPKEVIEFYSKNKELMDNMRNVALEEQAVEAVLAKAKVTEKETTFNELMNQQA	neither catalyse	3.83 ± 1.07	4.42 ± 0.58
fragment of the TF: fragment of the trigger factor (Stoller G. et al., 1996) (protein) RKQQATWKEKDGAVEAEDRVTIDFTGSVDGEEFEGGKASDFVLAMGQGRMIPGFEDGIKGHKAGEEFTIDVTFPEEYHAENLKGKAAKFAINLKKVEERELPELTAE	neither catalyse	3.96 ± 0.77	3.22 ± 0.58
Parvulin: peptidyl-prolyl cis/trans isomerase (Rahfeld et al., 1994) (protein) AKTAAALHILVKEEKLALDLLEQIKNGADFGKLAKKHSICPSGKRGGDLGEFRQGQMVPAFDKVVFSCPVLEPTGPLHTQFGYHIIKVLYRN	neither catalyse	2.90 ± 0.96	3.11 ± 0.46
